Target: T1, PilO-C (H. pylori)
T1 chain: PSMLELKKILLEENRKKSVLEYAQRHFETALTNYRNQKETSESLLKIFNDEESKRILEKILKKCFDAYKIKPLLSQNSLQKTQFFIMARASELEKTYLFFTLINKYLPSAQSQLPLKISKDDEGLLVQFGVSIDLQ
Test: SPR

B1: PilN-C (domain or fragment)
chain: HNAIKSTQDNASSLTIQERLYRHEISRLQVKTDETLKLIKEAKKRLNYNDDIRDVLQGLLNIVPDSITINSIEIDQQSVVVSGKTPSKEAFYFLFQNKLNPMFDYSRAEFFPLSDGWFNFVSTNFSNSLLIKNPESIK
Binder B1 has a Kd of 3.1 ± 1 µM.

— paper PMC10823254 (Proceedings of the National Academy of Sciences of the …, 2024)
